Like-named read-outs stand apart in the source and are kept apart here. Each block holds one substance with its values, some of them ahead of it.
Legend:
[1] = target: rhesus macaque FcγR3A-1 (rhesus macaque) (UniProt A3RFZ7); assay: SPR; mAb binding to recombinant purified Fc receptors; who was immobilised is not stated
[2] = target: rhesus macaque FcγR3A-3 (rhesus macaque) (UniProt A3RFZ7); assay: as above
[3] = target: human FcγRI (CD64) (human) (UniProt P12314); assay: as above
[4] = target: human FcγRIIIa/CD16 (human) (UniProt O75015); assay: as above
[5] = target: Env of SHIV-BaL, on virions (HIV-1 (env of SHIV-BaL))
[6] = target: Env of HIV-1 BaL.B, on virions (HIV-1)
[7] = target: Env of HIV-1 SF162.B, on virions (HIV-1) (UniProt P19550)
[8] = target: 7B2 Fab; assay: SPR; conditions: for response: sensorgram read at ~140 seconds after starting injection of 7B2 Fab, parent: est. 1400, read off a plot
[9] = target: rhesus macaque FcγR3A-1 (rhesus macaque) (UniProt A3RFZ7); assay: SPR
[10] = target: gp41_(596-606) peptide with Cys604 substituted by Ala, N-terminal biotin (HIV-1) (UniProt P04578); assay: SPR; BIAcore 4000; biotinylated 11mer and its alanine-substituted variants on a streptavidin chip; 7B2 (Fab by the legend) at 20 μg/ml; responses of the irrelevant antibody Synagis subtracted
[11] = binding response at saturation (~140 seconds after starting injection of 7B2 Fab)

Sequence of rhesus macaque FcγR3A-3 (rhesus macaque) (A3RFZ7 21-206): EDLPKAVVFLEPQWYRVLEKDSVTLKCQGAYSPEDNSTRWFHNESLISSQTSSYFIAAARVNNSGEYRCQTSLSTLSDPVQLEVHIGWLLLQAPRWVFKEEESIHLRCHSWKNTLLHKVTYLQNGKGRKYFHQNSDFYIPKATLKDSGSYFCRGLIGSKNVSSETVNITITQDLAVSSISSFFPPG
Sequence of rhesus macaque FcγR3A-1 (rhesus macaque) (A3RFZ7 21-206): as above
Sequence of human FcγRI (CD64) (human) (P12314 16-292): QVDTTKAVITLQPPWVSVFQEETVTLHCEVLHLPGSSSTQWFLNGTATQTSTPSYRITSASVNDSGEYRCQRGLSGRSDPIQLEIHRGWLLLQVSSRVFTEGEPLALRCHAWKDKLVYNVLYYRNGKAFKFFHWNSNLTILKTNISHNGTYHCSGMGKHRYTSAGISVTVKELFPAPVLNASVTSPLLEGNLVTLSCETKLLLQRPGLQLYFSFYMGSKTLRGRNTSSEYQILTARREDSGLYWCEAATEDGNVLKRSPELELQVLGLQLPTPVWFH

Substance: 7B2 IgG1_AAA (antibody)
Kd [1]: 68.7 nM
Kd [2]: 147 nM
Kd [3]: 49 nM
Kd [4]: 1100 nM
neutralisation of SHIV-BaL in the TZM-bl assay, IC50 [5]: > 50 µg/mL
neutralisation of HIV-1 BaL in peripheral blood monocytes differentiated into macrophages, ID50 [6]: 0.05 µg/mL
neutralisation of HIV-1 SF162 in macrophages, IC90 [7]: 0.2 not printed

Substance: gp41_(596-606) peptide, wild type, N-terminal biotin C598A
ratio to parent [8]: 25
ratio to parent [8, 11]: 0.16
response [8]: 200 RU

Kd [1]: 50 nM
koff [1]: 0.0094 s⁻¹
kon [1]: 190000 M⁻¹ s⁻¹
Kd [2]: 56 nM
koff [2]: 0.0061 s⁻¹
kon [2]: 110000 M⁻¹ s⁻¹
Substance: A32 IgG1_AAA (antibody)

Substance: A32 IgG1_AAA
Kd [9]: 46.2 nM

Substance: 7B2 IgG1_AAA
Kd [9]: 92.9 nM

Substance: gp41_(596-606) peptide, wild type, N-terminal biotin W596A
ratio to parent [8]: 8.65
ratio to parent [8, 11]: 0.83

Substance: gp41_(596-606) peptide, wild type, N-terminal biotin T605A
ratio to parent [8]: 0.79
ratio to parent [8, 11]: 0.99

Substance: gp41_(596-606) peptide, wild type, N-terminal biotin G600A
ratio to parent [8]: 0
ratio to parent [8, 11]: 0

Substance: gp41_(596-606) peptide, wild type, N-terminal biotin S599A
ratio to parent [8]: 21.4
ratio to parent [8, 11]: 0.64
response [8]: 880 RU

Substance: gp41_(596-606) peptide, wild type, N-terminal biotin K601A
ratio to parent [8]: 0.59
ratio to parent [8, 11]: 1.24

Substance: 7B2 Fab
off-rate relative to the wild-type peptide (fold) [10]: 2.8 fold

Substance: gp41_(596-606) peptide, wild type, N-terminal biotin G597A
ratio to parent [8]: 5.15
ratio to parent [8, 11]: 0.6

Substance: gp41_(596-606) peptide, wild type, N-terminal biotin L602A
ratio to parent [8]: 4.65
ratio to parent [8, 11]: 0.38

Substance: gp41_(596-606) peptide, wild type, N-terminal biotin I603A
ratio to parent [8]: 31.7
ratio to parent [8, 11]: 0.32
response [8]: 430 RU

Substance: gp41_(596-606) peptide, wild type, N-terminal biotin T606A
ratio to parent [8]: 1.11
ratio to parent [8, 11]: 0.89

Reference: article PMC4523205
